Here are results for 29 sequences from the supplement of paper PMC9170038.

This data set deals with MS2 coat protein. Put plainly: apparent KD of MS2 coat protein; designed switch direction (-1 OFF switch, 1 ON switch): 1; higher = weaker reporter binding. Put shortly: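 The buffer was Tris-HCl pH 7.5 with KCl, MgCl2, BSA, DTT, tRNA and Tween-20. In it, SNAP-549-labelled MS2 coat protein was titrated in doubling steps from 0.7 or 1.5 nM to 3 µM over chip-bound RNA switches transcribed by stalled E. coli RNA polymerase on Illumina chips. Apparent KD is the per-design median over clusters of curve fits to normalised fluorescence.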

The mark [1] stands for this setting: Eterna round: R95, input ligand: FMN 200 uM.
Setting [2] is: Eterna round: R95, input ligand: microRNA oligo, concentration not stated.
The mark [3] stands for this setting: Eterna round: R95, input ligand: none.
Setting [4] is: input ligand: microRNA oligo, concentration not stated.

Take “UCUUGGUUUUUGCUCGUUUUUUGUGUUGAACAUGAGGAUCACCCAUGUAUUGUACGGUCCAAUUUGAUAGUGGUCCG [JMF 28] (puzzle: Sensor for hsa-mir-208a)”: the “apparent KD of MS2 coat protein” value is 25.5 nM under setting [1], 14.9 nM under setting [2] and 25.7 nM under setting [3].
In the case of “UCUUGGUUUUUGCUCGUUUUUUGUGUUGAACAUGAGGAUCACCCAUGUAUUGUACGGUCCAAUUUGGUAAUGGUCCG [JMF 29] (puzzle: Sensor for hsa-mir-208a)”, the “apparent KD of MS2 coat protein” value reads like this: under setting [1], 25.2 nM; under setting [2], 15.6 nM; under setting [3], 26.8 nM.
For “UCUUGGUUUUUGCUCGUUUUUUGUGUUGAACAUGAGGAUCACCCAUGUAUUGUACGGUCCAGUUUAGUAGUGGUCCG [JMF 32] (puzzle: Sensor for hsa-mir-208a)”, the “apparent KD of MS2 coat protein” value runs as follows: under setting [1], 26 nM; under setting [2], 13.5 nM; under setting [3], 27 nM.
The like results for “UCUUGGUUUUUGCUCGUUUUUUGUGUUGAACAUGAGGAUCACCCAUGUAUUGUACGGUCCGGUUUGGUAAUGGUCCG [JMF 10] (puzzle: Sensor for hsa-mir-208a)” were, in that order, 24.4 nM, 16.1 nM and 27.8 nM.
On to “UGACAAGUGGUAGGAUAUCCAUGACAUGAGGAUCACCCAUGUUCUUUUGGUGUCCGUCACGGACGGGAGAAGGACCAACAUGAG [Same State NG2 S3] (Eterna round: R96, puzzle: Same State NG 2)”, for which the “apparent KD of MS2 coat protein” value (input ligand: FMN 200 uM) worked out at 10.1 nM, the “apparent KD of MS2 coat protein” value under setting [4] was found to be 9.45 nM and the “apparent KD of MS2 coat protein” value (input ligand: none) came out at 12.9 nM.
Regarding “UGCAUACAUGAGGAUCACCCAUGUCAACUUAGUCGAGGAUAUGGGCAGCCCUGAGGCGAACCAGAAGGCGAAUUGU [JL-ss1-3.01 ViennaUCT mod] (puzzle: Same State 1)”, under setting [2], the “apparent KD of MS2 coat protein” value came to 94.5 nM.
As to “UGCCUGAGUCGAGGAUAUUAUGGAUCCUCUAAUACAUGAGGAUCACCCAUGUAAUUAAUUAUACAUGAGAAGGCGACUCAGGCA [SSNG2/12-A2] (Eterna round: R96, puzzle: Same State NG 2)”, the “apparent KD of MS2 coat protein” value (input ligand: FMN 200 uM) came out at 278 nM, the “apparent KD of MS2 coat protein” value under setting [4] stood at 6.26 nM and the “apparent KD of MS2 coat protein” value (input ligand: none) was determined as 66.2 nM.
On to “UGCUAGUGGGUAGGAUAUUUAGGAUAUGCGGAAGACUAAGUCUGUAGGUCACCUAACGCAGAAGGAGAGAAGGACCCUUCAGCU [pwkr ssNG2 2FMN + F9.29] (Eterna round: R96, puzzle: Same State NG 2)”, for which the “apparent KD of MS2 coat protein” value by setting is: (input ligand: FMN 200 uM) 143 nM; under setting [4], 16.8 nM; (input ligand: none) 12.8 nM.
On to “UGCUAGUGGGUAGGAUAUUUAGGAUAUGGGAAAGACUAAGUCUGUAGGUCACCUAACCCAGAAGGAGAGAAGGACCAUUCAGCU [pwkr ssNG2 2FMN + F9.27] (Eterna round: R96, puzzle: Same State NG 2)”, for which the “apparent KD of MS2 coat protein” value (input ligand: FMN 200 uM) stood at 30.3 nM, the “apparent KD of MS2 coat protein” value under setting [4] was 4.33 nM and the “apparent KD of MS2 coat protein” value (input ligand: none) amounted to 28.5 nM.
For “UGCUUCGUGUAAGGAUAUGCAGCCGUUUCGGCUGCAGAAGGUACUAUAAUACAUGAGGAUCACCCAUGUCUCUCGCUUUGCGGG [salish99_SSng1_r04_304] (Eterna round: R96, puzzle: Same State NG 1)”, the “apparent KD of MS2 coat protein” value under setting [4] worked out at 43.4 nM.
For the sequence “UGGAAGAAUUAAGGAUAUCGAGUACAUAUGUUUAACAUGAGGAUCACCCAUGUGGGUUGCGGUAUCGAGAAGGUAAAUUACAAG [Mat - same State NG 2 - JL mod - D61] (Eterna round: R96, puzzle: Same State NG 2)”, the “apparent KD of MS2 coat protein” value (input ligand: FMN 200 uM) turned out to be 44.6 nM, the “apparent KD of MS2 coat protein” value under setting [4] turned out to be 40.5 nM and the “apparent KD of MS2 coat protein” value (input ligand: none) came out at 44 nM.
The like results for “UGGCUCAGACGAGGAUAUAUGUGGUCACAUGAGGAUCACCCAUGUCUCGAGCUUCGGCUCGAGGCAUAGAAGGUGUCUGAGCCA [SSNG2/5-C2] (Eterna round: R96, puzzle: Same State NG 2)” were, in that order, 227 nM, 16 nM and 33.9 nM.
As to “UGGCUGGUGCUAGGAUAUGCAUGAGGCCUCCUCGUAGAAGGAGCACGACAUGAGGAUCACCCAUGUGGCCGUCCGUAGACGGCU [salish99_SSNG1_r04_013] (Eterna round: R96, puzzle: Same State NG 1)”, the “apparent KD of MS2 coat protein” value (input ligand: FMN 200 uM) is 62.5 nM, the “apparent KD of MS2 coat protein” value under setting [4] amounted to 35.9 nM and the “apparent KD of MS2 coat protein” value (input ligand: none) was determined as 61.2 nM.
“UGGUAACAUGAGGAUCACCCAUGUCAAAUGAAUCGAGGAUAUGGGAAUUAAUAAUAUAAACUAGAAGGCGAAUUUG [Altered State 1-6 - Jieux - Same State 1] (puzzle: Same State 1)”: the “apparent KD of MS2 coat protein” value reads like this: under setting [1], 85.6 nM; under setting [2], 123 nM; under setting [3], 52.7 nM.
Take “UGGUACAUGGGAGGAUAUCCUCAGGAGACAUGAGGAUCACCCAUGUAAUUAAAGCCGAAAGGCAUGGAGAAGGCCCAUGUACCU [JL SSNG1 3.79] (Eterna round: R96, puzzle: Same State NG 2)”: the “apparent KD of MS2 coat protein” value reads like this: (input ligand: FMN 200 uM) 20.1 nM; under setting [4], 172 nM; (input ligand: none) 131 nM.
With “UGUAAACAUGAGGAUCACCCAUGUAAUAUAAUGGGAGGAUAUCUGAAUUAAUUAAAUUAAGGAGAAGGCCUAAUGG [Mat - Same State 1 - Mod of Eli - D48] (puzzle: Same State 1)”, the “apparent KD of MS2 coat protein” value is, setting by setting: under setting [1], 79.8 nM; under setting [2], 995 nM; under setting [3], 563 nM.
For “UGUUAACAUGAGGAUCACCCAUGUCAAAUGAAUCGAGGAUAUGGAAAGUAAUAAGAUGAACUAGAAGGCGAAGUUG [Altered State 1-18 - Jieux - Same State 1] (puzzle: Same State 1)”, the “apparent KD of MS2 coat protein” value runs as follows: under setting [1], 46.2 nM; under setting [2], 87.9 nM; under setting [3], 86.7 nM.
Take “UGUUGUAUUACAGGAUAUCUAGCAUUUUUAUUUAGAGAAGGGUAUUCACAUGAGGAUCACCCAUGUAUAUACGAGGAAGUUGUG [JMF's solution 32] (Eterna round: R96, puzzle: Same State NG 1)”: the “apparent KD of MS2 coat protein” value by setting is: (input ligand: FMN 200 uM) 54.9 nM; under setting [4], 42.1 nM; (input ligand: none) 51.9 nM.
As for “UGUUGUAUUACAGGAUAUCUAGUAUUUUCAUUUAGAGAAGGGUAUUCACAUGAGGAUCACCCAUGUAUAUACGAGGAAGUUGUG [JMF's solution 45] (Eterna round: R96, puzzle: Same State NG 1)”, under setting [4], the “apparent KD of MS2 coat protein” value is 34.7 nM.
Take “UGUUGUAUUACAGGAUAUCUAUAAUUUUUAUUUAGAGAAGGGUAUUCACAUGAGGAUCACCCAUGUAUAUACGAGGAAGUUGUG [JMF's solution 10] (Eterna round: R96, puzzle: Same State NG 1)”: the “apparent KD of MS2 coat protein” value under setting [4] was 31.1 nM.
Take “UGUUGUAUUACAGGAUAUCUAUGAUUUUAAUUUAGAGAAGGGUAUUCACAUGAGGAUCACCCAUGUAUAUACGAGGAAGUUGUG [JMF's solution 63] (Eterna round: R96, puzzle: Same State NG 1)”: the “apparent KD of MS2 coat protein” value under setting [4] worked out at 40.2 nM.
On the same count and under the same terms, to “UGUUGUAUUACAGGAUAUCUAUGAUUUUUAUUAAGAGAAGGGUAUUCACAUGAGGAUCACCCAUGUAUAUACGAGGAAGUUGUG [JMF's solution 70] (Eterna round: R96, puzzle: Same State NG 1)” belongs 25.6 nM; to “UGUUGUAUUACAGGAUAUCUAUUAUUUUUAAUUAGAGAAGGGUAUUCACAUGAGGAUCACCCAUGUAUAUACGAGGAAGUUGUG [JMF's solution 25] (Eterna round: R96, puzzle: Same State NG 1)”, 27.5 nM.
Consider “UGUUUGUUGUGAGGAUAUACAUACACCUUACAUGAGGAUCACCCAUGUUGUUACCUUGAUAGUUAGUAGAAGGCACUUGGUUAU [JR_SSNG2_Sub046] (Eterna round: R96, puzzle: Same State NG 2)”, for which the “apparent KD of MS2 coat protein” value (input ligand: FMN 200 uM) came out at 243 nM, the “apparent KD of MS2 coat protein” value under setting [4] was found to be 140 nM and the “apparent KD of MS2 coat protein” value (input ligand: none) worked out at 261 nM.
Consider “UGUUUGUUGUGAGGAUAUACAUACACCUUACAUGAGGAUCACCCAUGUUUUAAUUUUGAUAGUUAGUAGAAGGCACAUGAUUAU [JR_SSNG2_Sub044] (Eterna round: R96, puzzle: Same State NG 2)”, for which the “apparent KD of MS2 coat protein” value (input ligand: FMN 200 uM) is 21.3 nM, the “apparent KD of MS2 coat protein” value under setting [4] was determined as 28.1 nM and the “apparent KD of MS2 coat protein” value (input ligand: none) worked out at 46.5 nM.
The corresponding values for “UUAACAUGAGGAUCACCCAUGUAUACGUAGUUUGCAUUUUGACAGGAUAUUGAAUAUCUAUAUAGCAAGAAGGGUCGUUAGUCU [JR_SSNG3_Sub007] (Eterna round: R96, puzzle: Same State NG 3)” are 61 nM, 49.1 nM and 56.7 nM.
With “UUAACAUGAGGAUCACCCAUGUAUGCGUUGCUUGCAUUUUGACAGGAUAUUGUUUAUCCAUAUAGCAAGAAGGGUCGUUAGUCU [JR_SSNG3_Sub010] (Eterna round: R96, puzzle: Same State NG 3)”, the “apparent KD of MS2 coat protein” value (input ligand: FMN 200 uM) amounted to 80.9 nM, the “apparent KD of MS2 coat protein” value under setting [4] was determined as 63.1 nM and the “apparent KD of MS2 coat protein” value (input ligand: none) was determined as 79.1 nM.
As to “UUAAGCCACGAGCAGGAUAUGUAUUAAAAUACAUGAGGAUCACCCAUGUGCAGGUGUAACACCUGACAGAAGGGCCAAUCGCGGC [Soondi - 1] (puzzle: Same State 2)”, the “apparent KD of MS2 coat protein” value under setting [1] came out at 256 nM, the “apparent KD of MS2 coat protein” value under setting [2] worked out at 366 nM and the “apparent KD of MS2 coat protein” value under setting [3] was 461 nM.
For “UUAAUAAAGUAAGGAUAUACAUGAGGAUCACUCGUAGAAGGUACUAUACAUGAGGAUCACCCAUGUUCCGGUCAGAAGACUGGA [Mat - Same State NG 1 - JL mod - D4] (Eterna round: R96, puzzle: Same State NG 1)”, under setting [4], the “apparent KD of MS2 coat protein” value was found to be 440 nM.
